{"source": "patent US20030083294", "key": {"[1]": {"biological_target": "T1, coagulation factor IXa (FIXa) (Homo sapiens) (UniProt P00740+P00740)", "conditions": "2'-F pyrimidines, 2'-OH purines; physiologic salt and pH, 37 C"}, "[2]": {"biological_target": "activated protein C (APC) (UniProt P04070+P04070)", "conditions": "2'-F pyrimidines, 2'-OH purines; <10% RNA bound at up to 5 uM protein; >5000-fold specificity"}, "[3]": {"biological_target": "coagulation factor VIIa (FVIIa) (UniProt P08709+P08709)", "conditions": "2'-F pyrimidines, 2'-OH purines; <10% RNA bound at up to 5 uM protein; >5000-fold specificity"}, "[4]": {"biological_target": "coagulation factor XIa (FXIa) (UniProt P03951+P03951)", "conditions": "2'-F pyrimidines, 2'-OH purines; <10% RNA bound at up to 5 uM protein; >5000-fold specificity"}, "[5]": {"biological_target": "T2, coagulation factor Xa (FXa) (Homo sapiens) (UniProt P00742+P00742)", "conditions": "2'-F pyrimidines, 2'-OH purines; <10% RNA bound at up to 5 uM protein; >5000-fold specificity"}, "[6]": {"biological_target": "T2, coagulation factor Xa (FXa) (Homo sapiens)", "conditions": "2'-F pyrimidines?; versus 11F7t; no anticoagulant activity in PT or APTT"}, "[7]": {"biological_target": "T1, coagulation factor IXa (FIXa) (Homo sapiens)", "assay": "competition", "conditions": "2'-F pyrimidines, 2'-OH purines; 3-nt 2'-OMe 3' tail; comparable to 9.3t"}, "[8]": {"biological_target": "T2, coagulation factor Xa (FXa) (Homo sapiens)", "conditions": "2'-F pyrimidines?"}}, "note": "Where two headings read alike, the source gives them in different places."}
{"sequence": "AUGGGGACUAUACCGCGUAAUGCUGCCUCCCCAUN [9.3t]", "values": [{"measurement": "Kd", "setting": "[1]", "result": 0.6, "unit": "nM"}, {"measurement": "Kd", "setting": "[2]", "result": "> 5000", "unit": "nM"}, {"measurement": "Kd", "setting": "[3]", "result": "> 5000", "unit": "nM"}, {"measurement": "Kd", "setting": "[4]", "result": "> 5000", "unit": "nM"}, {"measurement": "Kd", "setting": "[5]", "result": "> 5000", "unit": "nM"}]}
{"sequence": "GAGAGCCCCAGCGAGAUAAUACUUGUACCCGCUCUUN [11F7tM]", "values": [{"measurement": "binding signal (fold loss of affinity)", "setting": "[6]", "result": "> 1300"}]}
{"sequence": "AUGGGGACUAUACCGCGUAAUGCUGCCUCCCCAUN [9.3t-3NT]", "values": [{"measurement": "Kd", "setting": "[7]", "result": "< 1.5", "unit": "nM"}]}
{"sequence": "GAGAGCCCCAGCGAGAUAAUACUUGGCCCCGCUCUUN [11F7t]", "values": [{"measurement": "Kd", "setting": "[8]", "result": 1.5, "unit": "nM"}]}
